Source: article PMC4538830, “CTNNBL1 facilitates the association of CWC15 with CDC5L and is required to maintain the abundance of the Prp19 spliceosomal complex” (Nucleic Acids Research, 2015)

Assays:
[1] = target: the molecule itself; test: SEC-MALS; CTNNBL1 (full length or [77–563]) alone; also in high salt buffer (0.5 M NaCl) or with CWC15[80–229] added; Supplementary Figure S7
[2] = target: T1, full-length recombinant His tagged CTNNBL1 (human, UniProt Q8WYA6 1-563); test: pull-down; His-CTNNBL1 (full length or [77–563]) as bait on Ni-NTA resin; 10–20 μg of each purified protein in pull down buffer, 1 h at 4°C; eluates on SDS-PAGE, Instant Blue; conditions: both partners purified
T1 construct: Homotrimer when alone in solution by SEC-MALS (186 kDa); also called His-CTNNBL1; full-length CTNNBL1; source: E. coli BL21 Rosetta (DE3)pLysS, purified (Ni-NTA, Resource Q)
T1 sequence (looked up): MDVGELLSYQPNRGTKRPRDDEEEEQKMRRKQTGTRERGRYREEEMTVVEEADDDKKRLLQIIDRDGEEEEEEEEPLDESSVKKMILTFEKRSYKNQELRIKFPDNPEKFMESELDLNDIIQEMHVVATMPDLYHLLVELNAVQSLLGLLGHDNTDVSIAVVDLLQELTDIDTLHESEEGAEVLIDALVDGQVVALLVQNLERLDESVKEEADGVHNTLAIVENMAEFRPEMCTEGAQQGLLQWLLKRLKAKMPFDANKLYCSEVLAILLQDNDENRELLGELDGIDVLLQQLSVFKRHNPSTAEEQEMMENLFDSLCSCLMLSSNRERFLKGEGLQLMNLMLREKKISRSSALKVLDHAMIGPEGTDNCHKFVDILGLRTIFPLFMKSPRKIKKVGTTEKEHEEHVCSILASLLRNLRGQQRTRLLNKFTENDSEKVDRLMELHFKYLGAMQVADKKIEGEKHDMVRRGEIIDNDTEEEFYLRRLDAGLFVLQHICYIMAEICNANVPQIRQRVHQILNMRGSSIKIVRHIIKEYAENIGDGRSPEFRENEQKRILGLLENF

[3] = target: T2, CWC15[80–229] (human, UniProt Q9P013 80-229); test: SEC-MALS; mixture of purified His-CTNNBL1[77–563], CDC5L[1–195] and CWC15[80–229]; conditions: both partners purified
T2 construct: Tag cleaved off by HRV 3C protease for gel filtration, crosslinking and HDX; source: E. coli BL21 Rosetta (DE3)pLysS, purified (Glutathione-Sepharose 4B, HRV 3C cleavage, Resource Q)
T2 sequence (looked up): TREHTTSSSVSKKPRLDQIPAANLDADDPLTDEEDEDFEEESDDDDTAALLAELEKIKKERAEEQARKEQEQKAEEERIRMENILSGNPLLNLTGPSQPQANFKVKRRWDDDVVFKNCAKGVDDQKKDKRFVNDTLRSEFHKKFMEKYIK

B1: His-CTNNBL1[77–563] (domain or fragment, human, UniProt Q8WYA6 77-563, looked up)
chain: LDESSVKKMILTFEKRSYKNQELRIKFPDNPEKFMESELDLNDIIQEMHVVATMPDLYHLLVELNAVQSLLGLLGHDNTDVSIAVVDLLQELTDIDTLHESEEGAEVLIDALVDGQVVALLVQNLERLDESVKEEADGVHNTLAIVENMAEFRPEMCTEGAQQGLLQWLLKRLKAKMPFDANKLYCSEVLAILLQDNDENRELLGELDGIDVLLQQLSVFKRHNPSTAEEQEMMENLFDSLCSCLMLSSNRERFLKGEGLQLMNLMLREKKISRSSALKVLDHAMIGPEGTDNCHKFVDILGLRTIFPLFMKSPRKIKKVGTTEKEHEEHVCSILASLLRNLRGQQRTRLLNKFTENDSEKVDRLMELHFKYLGAMQVADKKIEGEKHDMVRRGEIIDNDTEEEFYLRRLDAGLFVLQHICYIMAEICNANVPQIRQRVHQILNMRGSSIKIVRHIIKEYAENIGDGRSPEFRENEQKRILGLLENF
notes: Homotrimer when alone in solution by SEC-MALS (165 kDa); also called N-terminal truncation mutant of CTNNBL1; source: E. coli BL21 Rosetta (DE3)pLysS, purified (Ni-NTA, Resource Q)
stoichiometry N [1]: 3

B2: full-length GST-CWC15 (natural protein, human, UniProt Q9P013 1-229, looked up)
chain: MTTAARPTFEPARGGRGKGEGDLSQLSKQYSSRDLPSHTKIKYRQTTQDAPEEVRNRDFRRELEERERAAAREKNRDRPTREHTTSSSVSKKPRLDQIPAANLDADDPLTDEEDEDFEEESDDDDTAALLAELEKIKKERAEEQARKEQEQKAEEERIRMENILSGNPLLNLTGPSQPQANFKVKRRWDDDVVFKNCAKGVDDQKKDKRFVNDTLRSEFHKKFMEKYIK
notes: source: E. coli BL21 Rosetta (DE3)pLysS, purified (Glutathione-Sepharose 4B)
binding result [2]: binds

B3: CDC5L[1–195] (domain or fragment, human, UniProt Q99459 1-195, looked up)
chain: MPRIMIKGGVWRNTEDEILKAAVMKYGKNQWSRIASLLHRKSAKQCKARWYEWLDPSIKKTEWSREEEEKLLHLAKLMPTQWRTIAPIIGRTAAQCLEHYEFLLDKAAQRDNEEETTDDPRKLKPGEIDPNPETKPARPDPIDMDEDELEMLSEARARLANTQGKKAKRKAREKQLEEARRLAALQKRRELRAAG
notes: Tag cleaved off by TEV protease for gel filtration, crosslinking and HDX; source: E. coli BL21 Rosetta (DE3)pLysS, purified (amylose resin, TEV cleavage, Resource S)
stoichiometry N [3]: 1
